{
  "source": "paper PMC5679434",
  "about": "(Nature methods, 2017)",
  "binders": {"B1": {"name": "Thermoplasma acidophilum 20S proteasome β-subunit (natural protein, UniProt P28061 9-211, looked up)", "chain": "TTTVGITLKDAVIMATERRVTMENFIMHKNGKKLFQIDTYTGMTIAGLVGDAQVLVRYMKAELELYRLQRRVNMPIEAVATLLSNMLNQVKYMPYMVQLLVGGIDTAPHVFSIDAAGGSVEDIYASTGSGSPFVYGVLESQYSEKMTVDEGVDLVIRAISAAKQRDSASGGMIDVAVITRKDGYVQLPTDQIESRIRKLGLIL"}},
  "target": "Thermoplasma acidophilum 20S proteasome α-subunit (Thermoplasma acidophilum, UniProt P25156 1-233)",
  "sequence (P25156 whole entry)": "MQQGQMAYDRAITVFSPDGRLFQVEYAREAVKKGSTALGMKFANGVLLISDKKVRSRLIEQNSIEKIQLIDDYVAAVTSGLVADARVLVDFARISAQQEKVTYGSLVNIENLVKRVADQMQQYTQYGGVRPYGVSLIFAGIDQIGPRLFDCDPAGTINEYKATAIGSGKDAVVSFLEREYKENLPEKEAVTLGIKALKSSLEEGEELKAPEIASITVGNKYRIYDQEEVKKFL",
  "assay": "cryo-EM structure",
  "data": [
    {"binder": "B1", "values": [
      {"measurement": "binding result", "value": "binds"}
    ]}
  ]
}
